The results in this text go back to patent US20070265189A1 (published 2007).

Assay [1] concerns the target T1, Soluble IGF-1R (sIGF-1R), R&D Systems Cat. # 391-GR/CF (UniProt P08069 31-935, limits assumed).
T1 construct: extracellular domain
Kind of assay: phage ELISA. (ELISA stands for enzyme-linked immunosorbent assay.)

For assay [2], the target named is T2, soluble human insulin receptor-immunoglobulin heavy chain chimera (sIR-Fc; Bass et al., 1996) (human, UniProt P06213 28-956, limits assumed).
T2 construct: extracellular domain; also called soluble IR (Bass construct); not shown: immunoglobulin heavy chain constant domains
Kind of assay: phage ELISA.

Bounds are passed on as bounds.

With SQAGSAFYAWFDQVLRTVHSA [20E2Bβ-4-G6-IR], in assay [1], the IGF-1R/IR comparison worked out at 3.3 and the “Ratio over Background” value was found to be 6.2. In addition, in assay [2], the IR/IGF-1R comparison came to 0.3 and the “Ratio over Background” value is 1.9.
Taken in the same sequence, the figures for AICDAGFHEHFYDWFALQVSDCGRQS [H2CA-2-B11-IGFR] were 3, 4.6, 0.3 and 1.6.
On the same counts, the results for TSEVQRRSQDNFYDWFVAQVA [A6S-3-E2-IR] are 2.5, 24.7, 0.4 and 9.8.
On the same counts, the results for FFYDCLAALLQGVARYHDLCAVEIT [20C-4-C7-IGFR] are 21.8, 28, less than 0.1 and 1.3.
Consider GFREGSFYDWFQAQVT [E4Dα-2-D11-IR], for which, in assay [1], the IGF-1R/IR comparison came to 3.4 and the “Ratio over Background” value is 11.1. In assay [2], the IR/IGF-1R comparison stood at 0.3 and the “Ratio over Background” value was 3.3.
For RGAVAGFHDQFYDWFDRQVSRVHKFG [H2CA-4-H9-IGFR], in assay [1], the IGF-1R/IR comparison is 3 and the “Ratio over Background” value turned out to be 5.6.
As for LQPCSGFYECIERLIGVKLSG [20E2Bβ-4-G7-IR], in assay [1], the IGF-1R/IR comparison is 15.8 and the “Ratio over Background” value was found to be 25.2. For the same molecule, in assay [2], the IR/IGF-1R comparison worked out at 0.1 and the “Ratio over Background” value turned out to be 1.6.
Taken in the same sequence, the figures for TFYSCLASLLTGTPQPNRGPWERCR [20C-3-G3-IGFR] were 27, 32.3, less than 0.1 and 1.2.
As for VEGRGLFYDLLRQLLARRQNG [20E2B-3-C6-IGFR], in assay [1], the IGF-1R/IR comparison stood at 14.8 and the “Ratio over Background” value worked out at 16.8. In assay [2], the IR/IGF-1R comparison was 0.1 and the “Ratio over Background” value was 1.1.
Regarding YRGMLVLGRISGGAGKAASERPARIGQKVSAVNFYDWFV [A6L-0-H3-IR], in assay [1], the IGF-1R/IR comparison was 13 and the “Ratio over Background” value amounted to 26.
Regarding RGQSDAFYSGLWALIGLSDG [R20β-4-A6-IR], in assay [1], the IGF-1R/IR comparison was found to be 17.3 and the “Ratio over Background” value came to 25.9. Further, in assay [2], the IR/IGF-1R comparison amounted to 0.1 and the “Ratio over Background” value worked out at 1.5.
Taken in the same sequence, the figures for LGYQEPFQQNFYDWFVRQVSGAENAG [H2CA-3-E8-IGFR] were 2.9, 6.3, 0.3 and 2.2.
Taken in the same sequence, the figures for EAASLGSQDRNFYDWFVRQVV [A6S-2-D11-IR] were 2.8, 37.4, 0.4 and 13.5.
On the same counts, the results for VERSASSQDGNFYDWFVVQIR [A6S-2-D1-IR] are 2.6, 30.6, 0.4 and 12.
On to GVRAMSFYDALVSVLGLGPSG [20E2B-1-A6-IGFR], for which, in assay [1], the IGF-1R/IR comparison came to 16.8 and the “Ratio over Background” value came to 18.1. In assay [2], the IR/IGF-1R comparison came out at 0.1 and the “Ratio over Background” value came out at 1.1.
On the same counts, the results for YRGMLVLGRSSDGAGKVAFERPARIGQTVFAVNFYDWFV [A6L-0-E6-IR] are 17, 31, 0.1 and 1.8.
On the same counts, the results for FRTLAAQHDSFYDWFDRQVSGAAGER [H2CA-3-C11-IGFR] are 2.1, 3.3, 0.5 and 1.6.
Taken in the same sequence, the figures for RLFYCGIQALGANLGYSGCV [R20α-4-20A12-IR] were 16.6, 39.9, 0.1 and 2.4.
With CCTTEMVVMDARDDPFYHKLSELVTGG [B6Hα-1-B5-IR], in assay [1], the IGF-1R/IR comparison was 20.5 and the “Ratio over Background” value was found to be 20.5. Besides, in assay [2], the IR/IGF-1R comparison was 0 and the “Ratio over Background” value is 1.
Consider HLADGQFHEKFYDWFERQISSRCNDC [H2CA-3-E11-IGFR], for which, in assay [1], the IGF-1R/IR comparison turned out to be 2.2 and the “Ratio over Background” value came to 2.2. In addition, in assay [2], the IR/IGF-1R comparison was determined as 0.5 and the “Ratio over Background” value worked out at 1.
As to RGCNDDGGKGWSDDPFYHKLSELICGG [B6Hα-1-A2-IR], in assay [1], the IGF-1R/IR comparison is 14.6 and the “Ratio over Background” value was found to be 14.6. Also, in assay [2], the IR/IGF-1R comparison is 0.1 and the “Ratio over Background” value turned out to be 1.
Regarding VGRASGFPENFYDWFGRQLSLQSGEQ [H2CA-4-H6-IGFR], in assay [1], the IGF-1R/IR comparison is 14.6 and the “Ratio over Background” value was 10.5. Further, in assay [2], the IR/IGF-1R comparison was 0.1 and the “Ratio over Background” value was determined as 0.7.
Taken in the same sequence, the figures for GAPVDQLHEDFYDWFVRQVSQAATG [H2CA-2-B2-IGFR] were 3.5, 3.4, 0.3 and 1.
Taken in the same sequence, the figures for LKDGFYDYFWQRLHLGS [NNRPγ-4-B11-IR] were 15.5, 18.7, 0.1 and 1.2.
